In patent publication US9340769B2 (priority 2008, dated 2016):

Legend:
[1] = test system: stratum corneum barrier; assay type: in vivo, ICR mice
[2] = test system: P. acnes; assay: Effect of desipramine on P. acnes-induced inflammation in vivo (ear thickness); set-up: species or system ICR mice; conditions: 20 mg/kg i.p. 30 min before challenge; 24 hr
Method: (A) Amount of soluble ASMase in mouse ear increased 24 hr after bacteria challenge. Ears of ICR mice were intradermally injected with of P. acnes in PBS (1×10^7 CFU/20 μl; left ear) or PBS (20 μl; right ear), and excised after 24 hr. Ear tissue was obtained with a 8 mm biopsy and homogenized in PBS. The supernatant (1 ug of total protein) was subjected to Western blotting. ASMase (upper panels) and GAPDH (lower panels) were detected with goat anti-ASMase IgG followed by anti-GAPDH IgG (left panels). Normal goat or mouse IgG was used as a negative control for the detection (right panels). (B) P. acnes challenge into mouse ear attracted CD11b+ macrophages which highly expressed ASMase. Frozen sections of mouse ear obtained 24 after bacteria challenge were stained with biotinylated anti-mouse CD11b IgG, a conventional macrophage marker, and TRITC-streptavidin conjugate, followed by Goat anti-ASMase IgG and anti-goat IgG-TRITC conjugate. The nuclei were stained with DAPI (blue). Bar=200 μm. (C) Transmission electron microscopy (10,000× magnification) was used to visualize colonized P. acnes and ruptured cell membrane in mouse ears injected with P. acnes or PBS. PA, P. acnes; CM, cell membrane; NC, nucleus. Bar=1 μm. (D) Systemic pre-treatment of ICR mice with selective ASMase inhibitor relieved P. acnes-induced inflammation. […]

[3] = test system: HaCaT cells co-cultured with P. acnes; assay: P. acnes-mediated cell death: neutralization assay / ASMase inhibitor, HaCaT; conditions: desipramine 10 μM, 14 hr; 43.4% with PBS vehicle
[4] = test system: sialidase; assay: Immunogenicity of sialidase vaccines (Western blot, antigen microarray); conditions: recombinant protein with Freund (in)complete adjuvants; three weeks after immunization
[5] = test system: P. acnes; assay: P. acnes-induced ear thickness/redness in immunized mice (subcutaneous ear challenge)
[6] = test system: human SZ95 sebocytes; assay: Susceptibility of sialidase-treated sebocytes to P. acnes (cell death by trypan blue, adherence by CFU); conditions: pre-treatment 10 μg/ml for 2 h; GFP no effect
[7] = test system: sialic acids on the surface of human SZ95 sebocytes; assay: Sialidase enzyme activity: removal of surface sialic acids from sebocytes (MAA lectin I / streptavidin-FITC flow cytometry); conditions: compared among three cloned P. acnes sialidases

## CCCCCCCCCCCCCCO[C@@H]1O[C@H](CO)[C@@H](O[C@H]2O[C@H](CO)[C@@H](O)[C@H](O)[C@H]2O)[C@H](O)[C@H]1O [TDM, tetradecyl-β-D-maltoside]
[1]; 0.125% in sterile water, 15 min
  effect on stratum corneum barrier: slightly disrupts
[1]; mouse, in vivo
  effect on epicutaneous immunization of E. coli based-tetanus toxin C fragment vaccine: greatly enhances

## CNCCCN1c2ccccc2CCc2ccccc21 [desipramine]
[2]
  P. acnes-induced ear swelling: significantly relieved
[3]
  P. acnes-induced cell death, reduced by (HaCaT): 21.9%

B1: sialidase: recombinant P. acnes cell wall-anchored sialidase (gi|50843035) 6×NH fusion protein; enzyme and, with Freund adjuvants, vaccine (protein)
chain: MTLTTKLSALAIAGIMAVIGAPMVTQSAMASGRAPAPDAATTQPKLVTGDITSTDQSGTHLFFGKNIVRNAKGAIMKVDRTWPAAVPAPLPDVRADSSTRMLLGPVVDLAVNEHPAGVFYRIPALATASNGDLLASYDLRPGSAADAPNPNSIVQRRSRDNGRTRGPQTVIHAGTLGRRKVGYSDPSYLVDPATGHILNFHVKSYDRGFATSEVGTDPDDRHVLHAEVSTSTDNGHTWTYRDITREITPDPTTRTRFVASGQGIALLHGPHAGGLIAQMTVRNSVGQQAQSIYSDDHGITWHAGNPVGRMMDENKVVELSDGTLMLNSRDAARSGRRKVAYSHDGGLTWGPVKLVDDLIDPTNNAQIIRAYPNARAGSAKARILLFTNARNATERVNGTLSVSCDDGRTWVSHQTYMPGEVGYTTAAVQSDGALGVLWERDGIRYSTIPMGWLNSVCPVAPSGRPTSGEPTSGTSLPLTATPSGSLHGGASSRPTSLPHTGD
modifications: left off: small tags and cut ends
[4]
  anti-sialidase antibody in serum (Western blot): strong band
[5]; recombinant sialidase with Freund (in)complete adjuvants vs GFP-immunized, P. acnes 10^7 CFU s.c.
  elevation of ear thickness, reduced by: more than 50%
[5]; sialidase-immunized, GFP-immunized 7 days
  recovery of ear redness, days after P. acnes challenge: 3 days
[6]
  adherence of P. acnes into sebocytes: considerably increased
[7]
  enzyme activity in removing the sialic acids from the surface of human SZ95 sebocytes: strongest enzyme activity
